# Source: PMC11510446, “Establishing a Relationship between In Vitro Potency in Cell-Based Assays and Clinical Efficacious Concentrations for Approved GLP-1 Receptor Agonists” (Pharmaceutics, 2024)
# Like-named read-outs stand apart in the source and are kept apart here.
# Legend:
# [1] = human, cited from earlier work
# From the text: Pharmacokinetic parameters representing rate of absorption (Ka), central clearance (CL), central volume (Vc), peripheral volume (Vp), distribution clearance (CLd), bioavailability (F) and lag- time (Tlag).
# human GLP-1R = human GLP-1R (Homo sapiens, UniProt P43220); test: cAMP accumulation assay (HTRF) in stable CHO cell line expressing human GLP-1R; type: cell-based
# Description: Cell-based cyclic adenosine monophosphate (cAMP) accumulation assays were used to measure in vitro potency for GLP-1RAs in a stable Chinese hamster ovary (CHO) cell line expressing human GLP-1R (generated at AstraZeneca) or EndoC-βH1 cells endogenously expressing the GLP-1R (Endocells, Paris, France) as previously described. In brief, test GLP-1RA serial dilutions were prepared using an ECHO® acoustic liquid handler (Beckman, High Wycombe, UK) to obtain an 11-point dose–response curve in assay buffer (Hanks’ balanced salt solution (HBSS)) supplemented with 25 mM of HEPES and 0.5 mM of 3-isobutyl-1-methylxanthine (IBMX). […] The EndoC-βH1 cell assay was performed in an assay buffer containing 0.1% BSA.
# Following compound and cell incubation for 30 min, the level of cAMP accumulation was determined using a cAMP dynamic 2 HTRF (homogeneous time-resolved fluorescence) kit (Cisbio, Codolet, France), following the two-step protocol according to the manufacturer’s guidelines. Treated cells were incubated with anti-cAMP cryptate and cAMP-d2 in lysis buffer at room temperature for 1 h and read on an Envision plate reader (PerkinElmer, Waltham, MA, USA).
# Sequence of human GLP-1R (P43220 24-463): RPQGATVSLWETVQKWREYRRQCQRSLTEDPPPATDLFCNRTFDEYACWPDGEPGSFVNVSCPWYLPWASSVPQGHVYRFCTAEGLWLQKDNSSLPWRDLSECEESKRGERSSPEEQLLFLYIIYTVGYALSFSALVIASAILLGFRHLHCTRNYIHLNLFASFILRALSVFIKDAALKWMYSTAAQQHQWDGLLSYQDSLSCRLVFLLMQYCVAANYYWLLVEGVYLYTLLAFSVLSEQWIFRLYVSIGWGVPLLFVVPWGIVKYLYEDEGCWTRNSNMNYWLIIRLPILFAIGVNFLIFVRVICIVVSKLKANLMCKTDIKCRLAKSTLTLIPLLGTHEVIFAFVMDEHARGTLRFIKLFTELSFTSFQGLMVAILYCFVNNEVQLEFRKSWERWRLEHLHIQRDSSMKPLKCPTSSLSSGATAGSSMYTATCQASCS
"EC50 (human GLP-1R; read-out: EC50 (pM) 0.1%, NSB = BSA, shift assay Table S1A, 0.1% BSA)","EC50 (human GLP-1R; read-out: EC50 (pM) 0.1%, NSB = OA, shift assay Table S1B, 0.1% ovalbumin)","EC50 (human GLP-1R; read-out: EC50 (pM) 0.3%, NSB = BSA, shift assay Table S1A, 0.3% BSA)","EC50 (human GLP-1R; read-out: EC50 (pM) 0.3%, NSB = OA, shift assay Table S1B, 0.3% ovalbumin)","EC50 (human GLP-1R; read-out: EC50 (pM) 1%, NSB = BSA, shift assay Table S1A, 1% BSA)","EC50 (human GLP-1R; read-out: EC50 (pM) 1%, NSB = OA, shift assay Table S1B, 1% ovalbumin)","EC50 (human GLP-1R; read-out: EC50 (pM) 3%, NSB = BSA, shift assay Table S1A, 3% BSA)","EC50 (human GLP-1R; read-out: EC50 (pM) 3%, NSB = OA, shift assay Table S1B, 3% ovalbumin)",Molecule,bioavailability F ([1]; in vivo),central clearance CL ([1]; in vivo),central volume Vc ([1]; in vivo),distribution clearance CLd ([1]; in vivo),peripheral volume Vp ([1]; in vivo),rate of absorption Ka ([1]; in vivo),"lag-time Tlag ([1]; T2D, ref [7] (supplement references))","bioavailability F ([1]; fraction, dulaglutide value at 1.5 mg, ref [4] dulaglutide, [5] semaglutide oral, [6] semaglutide sc, [7] liraglutide (supplement references))","central clearance CL ([1]; population PK, T2D (semaglutide oral: T2D, obesity), ref [4] dulaglutide, [5] semaglutide oral, [6] semaglutide sc, [7] liraglutide (supplement references))"
9.07 pM,46.4 pM,10.8 pM,34.1 pM,12.1 pM,30.7 pM,9.7 pM,26 pM,Dulaglutide: a DPP-IV-protected GLP-1 analog covalently linked to a human IgG4-Fc heavy chain by a peptide linker,0.47,0.0593 L/h,2.25 L,0.0201 L/h,3.75 L,0.00769 h⁻¹,,,
,,,,,,,,CCCCCCCCCCCCCCCC(=O)N[C@@H](CCC(=O)NCCCC[C@H](NC(=O)[C@H](C)NC(=O)[C@H](C)NC(=O)[C@H](CCC(N)=O)NC(=O)CNC(=O)[C@H](CCC(=O)O)NC(=O)[C@H](CC(C)C)NC(=O)[C@H](Cc1ccc(O)cc1)NC(=O)[C@H](CO)NC(=O)[C@H](CO)NC(=O)[C@@H](NC(=O)[C@H](CC(=O)O)NC(=O)[C@H](CO)NC(=O)[C@@H](NC(=O)[C@H](Cc1ccccc1)NC(=O)[C@@H](NC(=O)CNC(=O)[C@H](CCC(=O)O)NC(=O)[C@H](C)NC(=O)[C@@H](N)Cc1cnc[nH]1)[C@@H](C)O)[C@@H](C)O)C(C)C)C(=O)N[C@@H](CCC(=O)O)C(=O)N[C@@H](Cc1ccccc1)C(=O)N[C@H](C(=O)N[C@@H](C)C(=O)N[C@@H](Cc1c[nH]c2ccccc12)C(=O)N[C@@H](CC(C)C)C(=O)N[C@H](C(=O)N[C@@H](CCCNC(=N)N)C(=O)NCC(=O)N[C@@H](CCCNC(=N)N)C(=O)NCC(=O)O)C(C)C)[C@@H](C)CC)C(=O)O [Liraglutide],,,,,,,6 h,0.51,0.91 L/h
